Sequences and labels used below:
T1: ATG9A (human) (human, UniProt Q7Z3C6 1-839)
T1 construct: Transmembrane protein; co-IP from RIPA lysates; Tagged and endogenous human forms kept under one id; also called Flag-ATG9A; HA-ATG9A
T1 sequence (looked up): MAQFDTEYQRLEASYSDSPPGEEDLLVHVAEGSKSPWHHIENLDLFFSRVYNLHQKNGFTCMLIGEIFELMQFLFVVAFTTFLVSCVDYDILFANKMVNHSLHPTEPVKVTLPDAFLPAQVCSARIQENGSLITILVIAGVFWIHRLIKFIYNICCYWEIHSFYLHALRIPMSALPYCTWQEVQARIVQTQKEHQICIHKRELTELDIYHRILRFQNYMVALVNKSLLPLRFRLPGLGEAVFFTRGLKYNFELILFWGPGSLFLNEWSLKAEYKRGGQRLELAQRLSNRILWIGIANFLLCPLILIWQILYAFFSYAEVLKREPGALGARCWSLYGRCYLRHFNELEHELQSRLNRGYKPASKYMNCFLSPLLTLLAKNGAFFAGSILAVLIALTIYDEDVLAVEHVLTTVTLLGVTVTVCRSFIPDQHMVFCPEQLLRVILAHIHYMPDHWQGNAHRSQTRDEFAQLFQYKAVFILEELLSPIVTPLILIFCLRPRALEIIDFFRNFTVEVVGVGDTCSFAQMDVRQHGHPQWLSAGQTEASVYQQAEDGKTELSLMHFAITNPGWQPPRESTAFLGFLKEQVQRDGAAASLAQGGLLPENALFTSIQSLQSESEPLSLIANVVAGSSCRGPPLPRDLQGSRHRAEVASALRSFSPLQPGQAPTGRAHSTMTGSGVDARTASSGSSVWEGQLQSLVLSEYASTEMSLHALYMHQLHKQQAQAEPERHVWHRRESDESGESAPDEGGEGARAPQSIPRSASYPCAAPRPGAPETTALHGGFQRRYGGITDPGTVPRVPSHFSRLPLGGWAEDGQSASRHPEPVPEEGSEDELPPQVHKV

T2: ATG13 (human, UniProt O75143 1-517, limits assumed)
T2 sequence (looked up): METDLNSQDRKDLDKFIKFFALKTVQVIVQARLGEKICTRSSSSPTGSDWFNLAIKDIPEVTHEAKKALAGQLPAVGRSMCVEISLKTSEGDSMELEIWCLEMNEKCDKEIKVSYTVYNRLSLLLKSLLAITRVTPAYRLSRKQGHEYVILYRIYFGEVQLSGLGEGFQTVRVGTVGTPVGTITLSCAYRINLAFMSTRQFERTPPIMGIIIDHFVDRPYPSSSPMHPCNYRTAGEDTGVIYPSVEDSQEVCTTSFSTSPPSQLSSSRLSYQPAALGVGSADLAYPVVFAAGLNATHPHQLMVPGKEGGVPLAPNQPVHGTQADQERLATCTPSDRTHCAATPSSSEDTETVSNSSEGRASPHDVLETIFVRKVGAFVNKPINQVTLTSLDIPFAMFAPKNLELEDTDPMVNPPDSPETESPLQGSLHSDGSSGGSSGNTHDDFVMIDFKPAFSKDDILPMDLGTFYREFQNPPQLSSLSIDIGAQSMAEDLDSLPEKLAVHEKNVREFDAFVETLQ

T3: WIPI1 (human, UniProt Q5MNZ9 1-446)
T3 sequence (looked up): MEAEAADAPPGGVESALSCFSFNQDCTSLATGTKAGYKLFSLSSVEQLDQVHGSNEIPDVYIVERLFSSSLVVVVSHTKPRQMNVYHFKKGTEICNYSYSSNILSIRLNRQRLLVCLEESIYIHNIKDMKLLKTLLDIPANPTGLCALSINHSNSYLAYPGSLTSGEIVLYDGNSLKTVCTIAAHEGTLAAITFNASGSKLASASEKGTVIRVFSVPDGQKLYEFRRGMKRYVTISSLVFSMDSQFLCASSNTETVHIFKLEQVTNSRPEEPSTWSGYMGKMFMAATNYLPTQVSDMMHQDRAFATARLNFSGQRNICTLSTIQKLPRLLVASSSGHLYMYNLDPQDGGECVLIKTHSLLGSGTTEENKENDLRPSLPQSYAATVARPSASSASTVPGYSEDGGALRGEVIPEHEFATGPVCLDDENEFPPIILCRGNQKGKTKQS

T4: ULK1 (human, UniProt O75385 1-1050)
T4 construct: also called HA-ULK1
T4 sequence (looked up): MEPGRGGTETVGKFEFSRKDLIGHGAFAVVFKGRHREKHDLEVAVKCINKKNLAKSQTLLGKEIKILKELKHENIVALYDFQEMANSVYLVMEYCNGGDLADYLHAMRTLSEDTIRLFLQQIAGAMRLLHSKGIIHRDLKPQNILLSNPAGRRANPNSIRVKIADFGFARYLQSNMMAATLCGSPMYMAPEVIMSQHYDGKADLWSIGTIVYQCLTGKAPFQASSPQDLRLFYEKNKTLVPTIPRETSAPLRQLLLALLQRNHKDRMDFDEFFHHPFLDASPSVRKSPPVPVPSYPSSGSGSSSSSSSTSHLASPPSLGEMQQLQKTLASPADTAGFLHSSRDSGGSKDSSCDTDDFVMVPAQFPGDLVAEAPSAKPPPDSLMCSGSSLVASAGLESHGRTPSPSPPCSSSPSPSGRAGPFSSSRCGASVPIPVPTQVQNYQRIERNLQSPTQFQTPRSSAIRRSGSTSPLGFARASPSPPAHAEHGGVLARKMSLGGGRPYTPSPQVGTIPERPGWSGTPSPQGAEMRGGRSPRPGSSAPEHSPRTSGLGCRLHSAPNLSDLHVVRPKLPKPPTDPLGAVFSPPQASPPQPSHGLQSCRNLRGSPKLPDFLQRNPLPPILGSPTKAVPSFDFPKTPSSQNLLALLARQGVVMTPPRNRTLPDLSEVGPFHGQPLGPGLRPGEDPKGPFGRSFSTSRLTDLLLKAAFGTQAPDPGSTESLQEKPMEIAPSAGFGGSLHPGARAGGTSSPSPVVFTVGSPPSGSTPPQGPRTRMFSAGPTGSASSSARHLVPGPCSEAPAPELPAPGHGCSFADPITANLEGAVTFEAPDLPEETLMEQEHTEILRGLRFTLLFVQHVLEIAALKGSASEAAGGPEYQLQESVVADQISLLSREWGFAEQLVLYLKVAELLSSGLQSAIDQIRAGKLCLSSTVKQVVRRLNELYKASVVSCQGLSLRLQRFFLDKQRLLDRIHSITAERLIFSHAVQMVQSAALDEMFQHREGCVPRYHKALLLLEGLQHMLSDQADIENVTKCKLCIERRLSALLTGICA

B1: Beclin 2 (human, full length) (other)
chain: MSSIRFLCQRCHQALKLSGSSESRSLPAAPAPTSGQAEPGDTREPGVTTREVTDAEEQQDGASSRSPPGDGSVSKGHANIFTLLGELGAMHMLSSIQKAAGDIFDIVSGQAVVDHPLCEECTDSLLEQLDIQLALTEADSQNYQRCLETGELATSEDEAAALRAELRDLELEEARLVQELEDVDRNNARAAADLQAAQAEAAELDQQERQHYRDYSALKRQQLELLDQLGNVENQLQYARVQRDRLKEINCFTATFEIWVEGPLGVINNFRLGRLPTVRVGWNEINTAWGQAALLLLTLANTIGLQFQRYRLIPCGNHSYLKSLTDDRTELPLFCYGGQDVFLNNKYDRAMVAFLDCMQQFKEEAEKGELGLSLPYGIQVETGLMEDVGGRGECYSIRTHLNTQELWTKALKFMLINFKWSLIWVASRYQK
notes: All tagged and endogenous human forms are kept under this one id; the form used is named under assay; also called BECN2; Flag-Beclin 2
B2: ERK1 (enzyme, UniProt P27361 1-379, looked up)
chain: MAAAAAQGGGGGEPRRTEGVGPGVPGEVEMVKGQPFDVGPRYTQLQYIGEGAYGMVSSAYDHVRKTRVAIKKISPFEHQTYCQRTLREIQILLRFRHENVIGIRDILRASTLEAMRDVYIVQDLMETDLYKLLKSQQLSNDHICYFLYQILRGLKYIHSANVLHRDLKPSNLLINTTCDLKICDFGLARIADPEHDHTGFLTEYVATRWYRAPEIMLNSKGYTKSIDIWSVGCILAEMLSNRPIFPGKHYLDQLNHILGILGSPSQEDLNCIINMKARNYLQSLPSKTKVAWAKLFPKSDSKALDLLDRMLTFNPNKRITVEEALAHPYLEQYYDPTDEPVAEEPFTFAMELDDLPKERLKELIFQETARFQPGVLEAP
notes: also called Mapk3

For one experiment, the target named is T1, ATG9A (human). Briefly: co-IP with anti-Flag beads and immunoblot; 293T cells co-transfected with HA-Beclin 2 and a Flag-tagged plasmid (FIG. 10A).
For the next experiment, the target named is T5, FIP200 (human, UniProt Q8TDY2 1-1594).
T5 construct: also called Flag-FIP200; hFIP200
T5 sequence (Q8TDY2 whole entry): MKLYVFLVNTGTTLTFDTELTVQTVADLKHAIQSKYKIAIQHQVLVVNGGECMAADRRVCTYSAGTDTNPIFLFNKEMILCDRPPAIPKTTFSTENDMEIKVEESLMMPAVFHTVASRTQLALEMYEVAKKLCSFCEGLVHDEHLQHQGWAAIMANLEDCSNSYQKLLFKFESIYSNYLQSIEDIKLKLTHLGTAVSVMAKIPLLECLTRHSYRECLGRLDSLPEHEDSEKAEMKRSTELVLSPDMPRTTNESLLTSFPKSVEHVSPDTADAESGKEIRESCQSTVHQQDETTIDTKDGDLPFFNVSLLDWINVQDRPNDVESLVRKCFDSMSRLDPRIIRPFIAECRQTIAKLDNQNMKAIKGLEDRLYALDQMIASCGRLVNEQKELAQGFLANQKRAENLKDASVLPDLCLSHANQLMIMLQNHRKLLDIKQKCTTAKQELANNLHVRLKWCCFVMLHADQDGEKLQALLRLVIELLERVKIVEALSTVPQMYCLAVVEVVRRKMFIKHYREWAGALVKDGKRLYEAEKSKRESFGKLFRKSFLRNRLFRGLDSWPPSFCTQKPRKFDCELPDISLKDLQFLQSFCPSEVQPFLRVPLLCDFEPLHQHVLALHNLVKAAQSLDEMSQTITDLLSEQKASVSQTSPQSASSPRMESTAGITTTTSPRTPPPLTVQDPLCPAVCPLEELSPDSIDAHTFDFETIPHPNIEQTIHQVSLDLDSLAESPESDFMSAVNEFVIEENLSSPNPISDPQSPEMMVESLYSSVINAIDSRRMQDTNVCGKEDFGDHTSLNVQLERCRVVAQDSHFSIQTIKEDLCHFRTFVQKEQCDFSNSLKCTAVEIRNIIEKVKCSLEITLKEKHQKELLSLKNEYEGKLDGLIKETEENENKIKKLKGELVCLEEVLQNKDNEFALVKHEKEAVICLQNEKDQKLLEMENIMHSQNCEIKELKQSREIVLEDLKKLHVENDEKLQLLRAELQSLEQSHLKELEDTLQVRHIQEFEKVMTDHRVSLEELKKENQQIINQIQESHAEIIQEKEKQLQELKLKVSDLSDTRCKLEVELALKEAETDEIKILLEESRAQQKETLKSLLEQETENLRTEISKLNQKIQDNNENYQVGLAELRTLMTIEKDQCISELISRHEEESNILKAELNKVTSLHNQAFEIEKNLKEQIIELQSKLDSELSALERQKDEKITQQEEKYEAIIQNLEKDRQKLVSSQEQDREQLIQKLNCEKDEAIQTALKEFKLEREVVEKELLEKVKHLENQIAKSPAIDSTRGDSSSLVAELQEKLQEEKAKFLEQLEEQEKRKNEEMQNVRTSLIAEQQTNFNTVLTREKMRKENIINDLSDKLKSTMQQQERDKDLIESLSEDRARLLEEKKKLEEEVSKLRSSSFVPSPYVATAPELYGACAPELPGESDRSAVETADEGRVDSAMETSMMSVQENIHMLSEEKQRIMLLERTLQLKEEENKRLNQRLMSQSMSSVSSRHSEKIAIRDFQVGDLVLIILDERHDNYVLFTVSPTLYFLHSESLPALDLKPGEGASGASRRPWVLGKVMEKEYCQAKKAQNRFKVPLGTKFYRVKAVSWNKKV
The experiment is described as follows: co-IP and immunoblot in 293T cells, as summed up in the discussion. A general note: Immunoblotting shows a protein as a band on a membrane.

For the next experiment, the target named is T2, ATG13. The description is as above.
Another experiment deals with T3, WIPI1. The experiment is described as follows: endogenous co-IP; 293T cell lysates immunoprecipitated with antibodies against each protein, immunoblot (FIG. 9D).
The target of the next experiment is T4, ULK1. Briefly: co-IP with anti-Flag beads and immunoblot; 293T cells co-transfected with Flag-Beclin 2 and HA-ULK1, complete or starvation medium (FIG. 10B).
In another experiment the target is ERK5 (UniProt Q13164 1-816). Briefly: co-IP with anti-Flag beads and immunoblot; 293T cells co-transfected with Flag-Beclin 2 and an HA-tagged plasmid (FIG. 8A).
Sequence of ERK5 (Q13164 whole entry): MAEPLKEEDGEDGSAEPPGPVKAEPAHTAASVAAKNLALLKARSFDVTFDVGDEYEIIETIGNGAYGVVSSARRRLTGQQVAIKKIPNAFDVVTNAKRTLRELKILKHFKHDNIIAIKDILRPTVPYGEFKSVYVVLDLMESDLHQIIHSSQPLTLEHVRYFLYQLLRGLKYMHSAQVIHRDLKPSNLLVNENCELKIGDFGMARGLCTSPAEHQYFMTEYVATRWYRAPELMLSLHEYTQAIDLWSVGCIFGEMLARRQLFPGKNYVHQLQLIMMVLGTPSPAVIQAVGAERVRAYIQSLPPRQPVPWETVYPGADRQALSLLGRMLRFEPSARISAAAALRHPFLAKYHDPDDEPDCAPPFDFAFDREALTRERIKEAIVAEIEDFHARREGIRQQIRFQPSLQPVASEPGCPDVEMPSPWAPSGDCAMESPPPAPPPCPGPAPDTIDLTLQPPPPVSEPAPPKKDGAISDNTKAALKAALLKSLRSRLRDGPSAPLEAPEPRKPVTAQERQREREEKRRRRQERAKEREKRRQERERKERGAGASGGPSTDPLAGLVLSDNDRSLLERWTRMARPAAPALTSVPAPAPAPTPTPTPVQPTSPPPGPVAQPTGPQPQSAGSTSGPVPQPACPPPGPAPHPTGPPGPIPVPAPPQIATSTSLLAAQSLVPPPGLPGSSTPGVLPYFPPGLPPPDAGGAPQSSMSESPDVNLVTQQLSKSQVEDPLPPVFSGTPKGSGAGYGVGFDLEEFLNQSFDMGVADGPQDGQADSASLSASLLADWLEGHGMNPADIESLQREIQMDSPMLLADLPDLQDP
In experiment [1] the target is B1. Described as above.
Experimental: (§1) The secondary antibody (Veriblot for IP detection reagent HRP) that only recognized native IgG but not denatured IgG was applied for immunoblotting of proteins in immunoprecipitates. For immunoprecipitation of Flag-tagged proteins, cell lysates were incubated with anti-Flag beads (Sigma) at 4° C. overnight. The beads were washed four times with RIPA lysis buffer, and immunoprecipitates were eluted with 2×SDS loading buffer. Immunoblotting was performed by loading the samples on SDS-PAGE gels, conducting electrophoresis, transferring the samples to PVDF membranes (Bio-Rad), and then incubating the membranes with the indicated antibodies. For all immunoblots, the LumiGLO Chemiluminescent Substrate System from KPL (Gaithersburg, MD) was used for protein detection.

Experimental for ERK5: as §1
Experimental for ULK1: as §1
Experimental for WIPI1: as §1

Regarding B1, the binding result with ATG9A (human) was “binds”; in the experiment with FIP200, “no binding”; with ATG13, “no binding”; in the experiment with WIPI1, “binds”; in the experiment with ULK1, “binds”; with ERK5, “no binding”.

Consider B2, for which, in experiment [1], the binding result is on record as “no binding”.

The values are drawn from patent US20240025959A1 (UNIVERSITY OF SOUTHERN CALIFORNIA, published 2024).
